Data as given in US20230052312A1 (Genentech, published 2023).
One block for each binder: values may come before it.

Columns and labels:
human PD-L1 [1] = biological target: T1, human PD-L1 (human, UniProt Q9NZQ7 19-290); assay: flow cytometry on human blood cells (conclusion of Example 1)
T1 construct: whole, on cells; Endogenous PD-L1 on cells of human donors and patients; also called programmed death ligand 1

human PD-L1 [2] = biological target: T1, human PD-L1; assay: flow cytometry on stimulated human whole blood, with or without Atezolizumab
Method: A Live Dead Kit (Invitrogen) was brought to room temperature. The kit included a near-IR fluorescent reactive dye and DMSO. 1× Pharm Lyse was made by mixing 10 mL of 10× Pharm Lyse (BD Biosciences) in 90 mL distilled water. After surface staining the cells in the test tubes, the tubes were vortexed and 3 mL of 1× Pharm Lyse was added to each test tube. The test tubes were vortexed again to enhance lysis of the cells in the presence of Pharm Lyse. The test tubes were then incubated for 15 minutes at room temperature in the dark. Following incubation, the test tubes were centrifuged for 5 minutes at 300 RCF/1500 to 1600 RPM. After centrifugation, the supernatant was aspirated as much as possible without disturbing the cell pellet. The bottom of each test tube was then flicked to break the cell pellet before washing the cells in 3 mL phosphate-buffered saline (PBS). The test tubes were centrifuged once more for 5 minutes at 300 RCF/1500 to 1600 RPM. The supernatant was then aspirated as before without disturbing the cell pellet. The bottom of each test tube was flicked to break the cell pellet and 1 mL of PBS was added to each test tube. A test tube was selected to perform a cell count using the BioRad TC20 cell counter. If the cell count was above 2 million live cells per mL of PBS in the tube, the concentration was adjusted to be 1 million live cells per mL and diluted accordingly using PBS. […]

T1 sequence (Q9NZQ7 19-290): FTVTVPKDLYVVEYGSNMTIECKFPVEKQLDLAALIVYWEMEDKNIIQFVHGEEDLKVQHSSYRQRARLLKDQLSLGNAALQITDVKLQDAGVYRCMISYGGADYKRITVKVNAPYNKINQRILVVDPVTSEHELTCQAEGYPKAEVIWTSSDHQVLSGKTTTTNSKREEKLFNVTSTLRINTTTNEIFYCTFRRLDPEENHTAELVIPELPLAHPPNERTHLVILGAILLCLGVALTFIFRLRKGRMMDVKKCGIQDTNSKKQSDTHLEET

- binding result (human PD-L1 [1]): binds
B1: anti-PD-L1 14D3 antibody (antibody, V domains shown)
VH: QVQLQQSGPELVNPGASVKISCKASGYAFSTSWMNWVKQRPGKGLEWIGRIYPRDGDTYYNGKFKDKATLTADKSSNTAYMQLSSLTSEDSAVYFCTKNPGGYYFDYWGQGTTLTVSS
VL: DIQMTQTTSSLSASLGDRVTINCRASQDIHTYLNWYQQKPDGTVKLLIFYTSRLHSGVPSRFSGSGSGTDYSLTISNLEQEDIATYFCQQVSSLPPWTFGGGTKVEIK
notes: also called clone 14D3; PD-L1 GNE

- binding result (human PD-L1 [2]): binds
B2: anti-PD-L1 PE 14D3 (antibody, V domains shown)
VH: B1 VH
VL: B1 VL
notes: also called anti-PD-L1 14D3 antibody labeled with PE

- binding result (human PD-L1 [2]): binds
B3: anti-PD-L1 AF647 14D3 (antibody, V domains shown)
VH: B1 VH
VL: B1 VL
notes: also called anti-PD-L1 14D3 antibody labeled with AF647
